Drawing on publication PMC3021122, this text covers stoichiometry N (Spa15 per IpgB1) for one substance.

The experiment concerns the target Shigella flexneri Spa15 (residues 1-133), N-terminal His tag, unlabelled (Shigella flexneri) (UniProt P35530). Kind of experiment: multi-angle laser light scattering; co-purified Spa15:IpgB1 complex; data not shown.

In turn, “Shigella flexneri IpgB1 (residues 1-208) (natural protein)” returned a stoichiometry N (Spa15 per IpgB1) of 2.
